This is an account of results in patent US20030017169A1, “Controlled release systems for polymers” (priority 2000, published 2003).

Read-outs that look alike come from different tables or passages of the source.

The conditions of data set [1]: mouse; expected from published studies and own work; cited from earlier work.
The nature of data set [2]: Expected pharmacokinetics of soluble and/or released interferon α in the mouse. To be noted: for a 20 g mouse. The format is in vivo. How it is done: Animal Study. […] Mice used for this study were Balb/c transgenic for the human Interferon α2b gene (Braun et al. 1997, Palleroni et al. 1997). Three mice were used for each formulation. As a, control, one set of mice was injected with 50 μg of soluble human IFN-α001. […] Thus, for a 20 g mouse, the volume of distribution should be ˜8 ml. At 24 hours after administration, given a half-life of 1 hr, we would predict that the serum concentration remaining from a 50 μg dose would be ˜1 pg/ml. In practice, all of the sera of this group of mice were below the detection limit of the ELISA of 40 pg/ml. To test our formulation strategy, we produced 5 different interferon formulations. Human IFN-α2b, human IFN-α001, human IFN-α012, and murine IFN-α formulations were allowed to mature for 18 hr. A fifth formulation contained human IFN-α001 and matured for 3 hours prior to centrifugation. The human IFN-α formulations were produced at 0.4 mg/ml protein with 25 mM NaOAc pH 5.4, 6 mM Tris pH 8.0, 50 mM NaCl, 1.25% glycerol, with particle formation intitiated by addition of N-propanol to 16%. […] Serum was collected at 24 hours post injection, mice in all groups recieving a human interferon had immunoreactive interferon in their serum as determined by ELISA (PBL Multispecies ELISA # 41105). […] No interferon was detected at the 96 hours or 168 hours time points.

Consider interferon α, for which the figures for the volume of distribution result in data set [1] and in data set [2] were “about 0.4 ml/g” and roughly 8 mL, respectively.
